Measurements from US20190314470A1 (UNITED STATES GOVERNMENT AS REPRESENTED BY THE DEPARTMENT …, published 2019).

Target: T1, K-RAS protein (recombinant, abcam) (UniProt P01116-2 1-188, limits assumed)
T1 construct: Bought recombinant protein used in solution in the far western; One partner was labelled with the cysteine-reactive dye NT-647
Test: quantification of the anti-RAS far western of FIG. 2E; two VAMP3 preparations
Method: Far Western Blotting. […] The membrane was then washed in 5% milk in TBST and incubated with horseradish peroxidase (HRP)-conjugated secondary antibody for 1 hr at RT. The membrane was then developed using the SuperSignal West Dura reagent (ThermoFischer). Quantification was done using ImageJ. For loading controls, duplicate membranes were spotted and immediately stained with a Coomassie Stain Kit (Biorad).

binding result: no binding (tested: 2 µg spotted)
B1: VAMP3 (recombinant, LSbiosciences / MyBiosource) (other, UniProt Q15836 1-77, looked up)
chain: MSTGPTAATGSNRRLQQTQNQVDEVVDIMRVNVDKVLERDQKLSELDDRADALQAGASQFETSAAKLKRKYWWKNCK
notes: Two commercial preparations were spotted in the far western; also called vesicle-associated membrane protein 3
